Data set [1] in a line: INGRID phase II trial: toxicity graded by NCI-NCIC CTC version 3.0. It is filed as in vivo. To be noted: of 132 delivered courses; fever, chills, arterial hypertension. How it is done:
Treatment side effects were assessed separately for each chemotherapy course and graded according to the NCI-NCIC CTC version 3·0^19. The worst toxicity per organ, per patient was considered. Periodic specialist controls, ECG, troponin levels determination, and echocardiography were performed before every treatment course to exclude cardiac toxicity. The impact of treatment on cognitive functions was not assessed by ad hoc tests.
Duration of response, PFS, OS, and tolerability were the secondary endpoints. Duration of response was defined as the time from the first assessment that documents the response to the date of relapse, date of death from any cause or date of the last visit of follow-up. PFS was defined as the interval between the time of entry onto trial and failure (relapsing or progressive disease), death from any cause or date of the last visit of follow-up. OS was defined as the time from entry onto trial until death from any cause or date of the last visit of follow-up. Tolerability was defined by of grade 3-4 AEs according to NCI CTCAE^19.

In data set [2] the test system is BBB permeability in lymphomatous lesions and perilesional area. As to the kind of experiment: BBB permeability assessed by DCE-MRI (Ktrans). The class given is in vivo, human. Conditions: tumoral/peritumoral areas. As to the method: Variations induced by NGR-hTNF in the BBB permeability at the level of the lymphomatous lesions, areas surrounding the tumor (perilesional area) and in the normal-appearing brain parenchyma were assessed by DCE-MRI. DCE acquisition followed a standard protocol^28 that included also conventional T1, T2, Flair, DWI and Dynamic Susceptibility Contrast Perfusion (DSC) sequences. […] In cases of multiple lesions, the largest one was considered. Post-processing of DCE-MRI was performed using Olea software (La Ciotat, France); all dynamic images were corrected for motion artifacts and co-registered to a volumetric post-contrast T1 sequences. Results were expressed as Ktrans values normalized using contralateral white matter. Ktrans obtained after the 2nd course (measured after NGR-hTNF infusion) were compared with those obtained after the 1st course (without NGR-hTNF) to establish the effect of TNF on BBB permeabilization. Statistically significance was assessed by Wilcoxon matched pairs test.

The source of these data is US12285465B2, “Combined treatment of primary central nervous system lymphoma” (FONDAZIONE CENTRO SAN RAFFAELE, priority 2018, dated 2025).

Entries after “also recorded” stand apart in the source; their conditions may differ.

As to “NGR-hTNF: genetically engineered protein consisting of CNGRCG fused to the N-terminus of human tumor necrosis factor alpha (SEQ ID No. 1), expressed in E. coli”, the “TNF Infusion reaction Grade 1-2 (number of courses)” value in data set [1] was “nine”. In addition, in data set [2], the “vascular permeability (DCE-MRI, SPECT)” value is given as “selectively increased vascular permeability in tumoral/peritumoral areas; also recorded: vascular permeability was increased”.
